From patent publication US9717715B2

Columns and labels:
[1] = biological target: c-Met on human cancer cells (human) (UniProt P08581)
[2] = biological target: c-Met on human cancer cells (human) (UniProt P08581); remark: listed apart in the source

Substance antibody 5D5 (ATCC Cat. # HB11895) has an Akt phosphorylation (%) in Caki-1 cells, 5 ug/ml, 30 min [1] of 100% and a relative cell viability (%) of MKN45 cells, 72 h [2] of 53%.
